Measurements from publication PMC2928392 (Pharmacogenetics and Genomics, 2009).

B1: UDP-glucuronosyltransferase 2A1 (UGT2A1) (Homo sapiens) (protein)
chain: GNVLIWPMEGSHWLNVKIIIDELIKKEHNVTVLVASGALFITPTSNPSLTFEIYKVPFGKERIEGVIKDFVLTWLENRPSPSTIWRFYQEMAKVIKDFHMVSQEICDGVLKNQQLMAKLKKSKFEVLVSDPVFPCGDIVALKLGIPFMYSLRFSPASTVEKHCGKVPYPPSYVPAVLSELTDQMSFTDRIRNFISYHLQDYMFETLWKSWDSYYSKALGGLLLCCPGWSAVADLGSLQPLLPGFKRFSRLSLHCSWDYRLPAGRPTTLCETMGKAEIWLIRTYWDFEFPRPYLPNFEFVGGLHCKPAKPLPKVLWRYKGKKPATLGNNTQLFDWIPQNDLLGHPKTKAFITHGGTNGIYEAIYHGVPMVGVPMFADQPDNIAHMKAKGAAVEVNLNTMTSVDLLSALRTVINEPSYKENAMRLSRIHHDQPVKPLDRAVFWIEFVMRHKGAKHLRVAAHDLTWFQYHSLDVIGFLLVCVTTAIFLVIQCCLFSCQKFGKIGKKKKRE
B2: UDP-glucuronosyltransferase 2A2 (UGT2A2) (Homo sapiens) (protein)
chain: MVSIRDFTMPKKFVQMLVFNLTLTEVVLSGNVLIWPTDGSHWLNIKIILEELIQRNHNVTVLASSATLFINSNPDSPVNFEVIPVSYKKSNIDSLIEHMIMLWIDHRPTPLTIWAFYKELGKLLDTFFQINIQLCDGVLKNPKLMARLQKGGFDVLVADPVTICGDLVALKLGIPFMYTLRFSPASTVERHCGKIPAPVSYVPAALSELTDQMTFGERIKNTISYSLQDYIFQSYWGEWNSYYSKILGRPTTLCETMGKAEIWLIRTYWDFEFPRPYLPNFEFVGGLHCKPAKPLPKEMEEFIQSSGKNGVVVFSLGSMVKNLTEEKANLIASALAQIPQKVLWRYKGKKPATLGNNTQLFDWIPQNDLLGHPKTKAFITHGGTNGIYEAIYHGVPMVGVPMFADQPDNIAHMKAKGAAVEVNLNTMTSVDLLSALRTVINEPSYKENAMRLSRIHHDQPVKPLDRAVFWIEFVMRHKGAKHLRVAAHDLTWFQYHSLDVIGFLLVCVTTAIFLVIQCCLFSCQKFGKIGKKKKRE

Experiments:
[1] = target: T1, UDP-glucuronosyltransferase 2A3 (UGT2A3) (Homo sapiens, UniProt Q6UWM9); assay: glucuronidation rate at […], radiochemical HPLC; format: cell-based
T1 sequence (Q6UWM9 24-527): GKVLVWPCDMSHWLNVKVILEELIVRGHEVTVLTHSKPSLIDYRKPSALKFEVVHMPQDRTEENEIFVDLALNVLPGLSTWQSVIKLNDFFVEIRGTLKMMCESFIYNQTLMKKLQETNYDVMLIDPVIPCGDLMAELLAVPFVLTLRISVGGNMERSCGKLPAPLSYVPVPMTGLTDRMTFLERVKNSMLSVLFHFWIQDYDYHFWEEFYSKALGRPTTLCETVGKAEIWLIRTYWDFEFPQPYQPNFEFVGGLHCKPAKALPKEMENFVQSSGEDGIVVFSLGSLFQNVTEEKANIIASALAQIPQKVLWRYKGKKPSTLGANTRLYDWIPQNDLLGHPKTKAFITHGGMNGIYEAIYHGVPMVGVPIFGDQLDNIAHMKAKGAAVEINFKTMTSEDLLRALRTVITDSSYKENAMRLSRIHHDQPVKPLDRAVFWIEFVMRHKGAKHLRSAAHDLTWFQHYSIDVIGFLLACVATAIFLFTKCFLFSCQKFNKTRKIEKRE

[2] = substrate: O=C(O)[C@H]1O[C@H](OP(=O)(O)OP(=O)(O)OC[C@H]2O[C@@H](n3ccc(=O)[nH]c3=O)[C@H](O)[C@@H]2O)[C@H](O)[C@@H](O)[C@@H]1O; assay: cells, lysate or membranes; settings: MgCl2 ([…]) co-substrate
glucuronidation kinetics [3] = substrate: O=[N+]([O-])c1ccc(O)cc1; assay: glucuronidation kinetics; format: cell-based, Homo sapiens; settings: UDP-glucuronic acid; MgCl2 ([…])
glucuronidation kinetics [4] = substrate: Cc1cc(=O)oc2cc(O)ccc12; assay: glucuronidation kinetics; format: cell-based, Homo sapiens; settings: UDP-glucuronic acid; MgCl2 ([…])
glucuronidation kinetics [5] = substrate: Oc1ccc(-c2ccccc2)cc1; assay: glucuronidation kinetics; format: cell-based, Homo sapiens; settings: UDP-glucuronic acid; MgCl2 ([…])

Molecule | glucuronidation rate at 200 μM, radiochemical HPLC (4.9 pmol/min/mg) [1] | Km [2] | Vmax [2] | Km (glucuronidation kinetics [3]) | Vmax (glucuronidation kinetics [3]) | Km (glucuronidation kinetics [4]) | Vmax (glucuronidation kinetics [4]) | Km (glucuronidation kinetics [5]) | Vmax (glucuronidation kinetics [5])
C[C@H](CCC(=O)O)[C@H]1CC[C@H]2[C@@H]3C[C@H](O)[C@@H]4C[C@H](O)CC[C@]4(C)[C@H]3CC[C@]12C [HDCA, hyodeoxycholic acid] | UGT2A3 exhibited glucuronidating activity only towards HDCA |  |  |  |  |  |  |  | 
B1 |  | 39.5 µM | 292 ± 12 pmol/min/mg | 303 µM | 141 ± 5 pmol/min/mg |  |  |  | 
B2 |  | 55.1 µM | 91.4 ± 3 pmol/min/mg | 4469 µM | 69 ± 3 pmol/min/mg | 2998 µM | 39 ± 0.9 pmol/min/mg | 245 µM | 124 ± 2 pmol/min/mg
